Data on 1 molecule can be found in paper PMC8170004 (iScience, 2021).

The target in one experiment is T1, Human GDF8, biotinylated (human, UniProt O14793 267-375, biotin (Biotin Labeling Kit-NH2)).
T1 sequence: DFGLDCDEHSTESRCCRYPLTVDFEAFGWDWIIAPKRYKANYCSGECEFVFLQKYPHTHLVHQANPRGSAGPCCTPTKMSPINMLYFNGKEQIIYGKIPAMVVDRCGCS
In words: ELISA. (In general: In an ELISA, binding on a coated surface is turned into a signal by an enzyme label.)

Experiment [1] deals with T2, Human GDF11, biotinylated (human, UniProt O95390 299-407, biotin (Biotin Labeling Kit-NH2)).
T2 sequence: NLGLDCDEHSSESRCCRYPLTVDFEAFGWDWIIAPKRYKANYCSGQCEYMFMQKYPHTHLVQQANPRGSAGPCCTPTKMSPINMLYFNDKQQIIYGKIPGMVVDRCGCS
Nature of the experiment: ELISA.

B1: Bivalent Human FSTL3-Fc (Fc fusion)
chain: MGSGNPAPGGVCWLQQGQEATCSLVLQTDVTRAECCASGNIDTAWSNLTHPGNKINLLGFLGLVHCLPCKDSCDGVECGPGKACRMLGGRPRCECAPDCSGLPARLQVCGSDGATYRDECELRAARCRGHPDLSVMYRGRCRKSCEHVVCPRPQSCVVDQTGSAHCVVCRAAPCPVPSSPGQELCGNNNVTYISSCHMRQATCFLGRSIGVRHAGSCAGTPEEPPGGESAEEEENFV
As to B1, the binding result with Human GDF8, biotinylated is “binds”; in experiment [1], “binds”.
